± gives the uncertainty stated by the source.

To fix the notation:
B1: DnaJ homolog subfamily C member 2, residues 451 to 503; numbered along this chain, Q99543 (parent)
chain: SKNWSEDDLQLLIKAVNLFPAGTNSRWEVIANYMNIHSSSGVKRTAKDVIGKA

Variants of B1 are the subject of the series. Description: abundance fitness (aPCA) (normalised: wild type 0, dead -1); higher = more abundant; growth selection in yeast, the domain comes from the species named. The following applies: Homo sapiens.
Take SKNWSEDDLQLLIKAVHLFPAGTNSRWEVIANYMNIHSSSGVKRTAKDVIGKA: the abundance fitness is -0.158 ± 0.12. Then SKNWSEDDLQLLIKAVLLFPAGTNSRWEVIANYMNIHSSSGVKRTAKDVIGKA, with -0.216 ± 0.062; and SKNWSEDDLQLLIKAVTLFPAGTNSRWEVIANYMNIHSSSGVKRTAKDVIGKA, with -0.016 ± 0.074.

As for SKNWSEDDLQLLIKAVGLFPAGTNSRWEVIANYMNIHSSSGVKRTAKDVIGKA, the abundance fitness is -0.082 ± 0.057. For SKNWSEDDLQLLIKAVWLFPAGTNSRWEVIANYMNIHSSSGVKRTAKDVIGKA the value was -0.348 ± 0.075; for SKNWSEDDLQLLIKAVVLFPAGTNSRWEVIANYMNIHSSSGVKRTAKDVIGKA, -0.161 ± 0.063; for SKNWSEDDLQLLIKAVRLFPAGTNSRWEVIANYMNIHSSSGVKRTAKDVIGKA, -0.036 ± 0.057.

Consider SKNWSEDDLQLLIKAVDLFPAGTNSRWEVIANYMNIHSSSGVKRTAKDVIGKA, for which the abundance fitness came to 0.12 ± 0.094. Then SKNWSEDDLQLLIKAVKLFPAGTNSRWEVIANYMNIHSSSGVKRTAKDVIGKA, with -0.043 ± 0.095; and SKNWSEDDLQLLIKAVQLFPAGTNSRWEVIANYMNIHSSSGVKRTAKDVIGKA, with -0.157 ± 0.073; and SKNWSEDDLQLLIKAVSLFPAGTNSRWEVIANYMNIHSSSGVKRTAKDVIGKA, with -0.061 ± 0.066. For SKNWSEDDLQLLIKAVPLFPAGTNSRWEVIANYMNIHSSSGVKRTAKDVIGKA the value was -0.875 ± 0.11; for SKNWSEDDLQLLIKAVYLFPAGTNSRWEVIANYMNIHSSSGVKRTAKDVIGKA, -0.194 ± 0.11; for SKNWSEDDLQLLIKAVILFPAGTNSRWEVIANYMNIHSSSGVKRTAKDVIGKA, -0.384 ± 0.095. For SKNWSEDDLQLLIKAVFLFPAGTNSRWEVIANYMNIHSSSGVKRTAKDVIGKA the value was -0.353 ± 0.13; for SKNWSEDDLQLLIKAVNGFPAGTNSRWEVIANYMNIHSSSGVKRTAKDVIGKA, -0.53 ± 0.061. In the case of SKNWSEDDLQLLIKAVNCFPAGTNSRWEVIANYMNIHSSSGVKRTAKDVIGKA, the abundance fitness was -0.222 ± 0.088. Then SKNWSEDDLQLLIKAVNPFPAGTNSRWEVIANYMNIHSSSGVKRTAKDVIGKA, with -0.807 ± 0.14; and SKNWSEDDLQLLIKAVNWFPAGTNSRWEVIANYMNIHSSSGVKRTAKDVIGKA, with -0.547 ± 0.071; and SKNWSEDDLQLLIKAVNDFPAGTNSRWEVIANYMNIHSSSGVKRTAKDVIGKA, with -0.332 ± 0.12. For SKNWSEDDLQLLIKAVNKFPAGTNSRWEVIANYMNIHSSSGVKRTAKDVIGKA the value was -0.268 ± 0.092; for SKNWSEDDLQLLIKAVNAFPAGTNSRWEVIANYMNIHSSSGVKRTAKDVIGKA, 0.043 ± 0.096. For the variant SKNWSEDDLQLLIKAVNIFPAGTNSRWEVIANYMNIHSSSGVKRTAKDVIGKA, the abundance fitness is -0.073 ± 0.14. On to SKNWSEDDLQLLIKAVNRFPAGTNSRWEVIANYMNIHSSSGVKRTAKDVIGKA, for which the abundance fitness is -0.145 ± 0.061. SKNWSEDDLQLLIKAVNQFPAGTNSRWEVIANYMNIHSSSGVKRTAKDVIGKA: the abundance fitness is -0.38 ± 0.11.

In the case of SKNWSEDDLQLLIKAVNEFPAGTNSRWEVIANYMNIHSSSGVKRTAKDVIGKA, the abundance fitness is -0.305 ± 0.095. On to SKNWSEDDLQLLIKAVNYFPAGTNSRWEVIANYMNIHSSSGVKRTAKDVIGKA, for which the abundance fitness is -0.173 ± 0.096. Then SKNWSEDDLQLLIKAVNMFPAGTNSRWEVIANYMNIHSSSGVKRTAKDVIGKA, with 0.065 ± 0.095; and SKNWSEDDLQLLIKAVNTFPAGTNSRWEVIANYMNIHSSSGVKRTAKDVIGKA, with -0.054 ± 0.1; and SKNWSEDDLQLLIKAVNFFPAGTNSRWEVIANYMNIHSSSGVKRTAKDVIGKA, with -0.219 ± 0.085. Then SKNWSEDDLQLLIKAVNHFPAGTNSRWEVIANYMNIHSSSGVKRTAKDVIGKA, with -0.272 ± 0.12; and SKNWSEDDLQLLIKAVNVFPAGTNSRWEVIANYMNIHSSSGVKRTAKDVIGKA, with -0.108 ± 0.074. Then SKNWSEDDLQLLIKAVNSFPAGTNSRWEVIANYMNIHSSSGVKRTAKDVIGKA, with -0.273 ± 0.072. As to SKNWSEDDLQLLIKAVNLFPAETNSRWEVIANYMNIHSSSGVKRTAKDVIGKA, the abundance fitness is 0.011 ± 0.067. Then SKNWSEDDLQLLIKAVNLFPALTNSRWEVIANYMNIHSSSGVKRTAKDVIGKA, with -0.484 ± 0.062; and SKNWSEDDLQLLIKAVNLFPACTNSRWEVIANYMNIHSSSGVKRTAKDVIGKA, with 0.015 ± 0.087; and SKNWSEDDLQLLIKAVNLFPAATNSRWEVIANYMNIHSSSGVKRTAKDVIGKA, with -0.064 ± 0.056. Then SKNWSEDDLQLLIKAVNLFPAMTNSRWEVIANYMNIHSSSGVKRTAKDVIGKA, with -0.371 ± 0.078; and SKNWSEDDLQLLIKAVNLFPAQTNSRWEVIANYMNIHSSSGVKRTAKDVIGKA, with -0.293 ± 0.079; and SKNWSEDDLQLLIKAVNLFPAITNSRWEVIANYMNIHSSSGVKRTAKDVIGKA, with -0.194 ± 0.094.

For the variant SKNWSEDDLQLLIKAVNLFPARTNSRWEVIANYMNIHSSSGVKRTAKDVIGKA, the abundance fitness was -0.098 ± 0.056. Then SKNWSEDDLQLLIKAVNLFPAPTNSRWEVIANYMNIHSSSGVKRTAKDVIGKA, with -0.217 ± 0.074. For the variant SKNWSEDDLQLLIKAVNLFPADTNSRWEVIANYMNIHSSSGVKRTAKDVIGKA, the abundance fitness is -0.016 ± 0.078. Turning to SKNWSEDDLQLLIKAVNLFPAKTNSRWEVIANYMNIHSSSGVKRTAKDVIGKA, the abundance fitness is -0.146 ± 0.076. For SKNWSEDDLQLLIKAVNLFPAHTNSRWEVIANYMNIHSSSGVKRTAKDVIGKA the value was -0.166 ± 0.1. Take SKNWSEDDLQLLIKAVNLFPAFTNSRWEVIANYMNIHSSSGVKRTAKDVIGKA: the abundance fitness was -0.489 ± 0.083. Then SKNWSEDDLQLLIKAVNLNPAGTNSRWEVIANYMNIHSSSGVKRTAKDVIGKA, with -0.803 ± 0.16. Regarding SKNWSEDDLQLLIKAVNLAPAGTNSRWEVIANYMNIHSSSGVKRTAKDVIGKA, the abundance fitness was -0.536 ± 0.094. Turning to SKNWSEDDLQLLIKAVNLIPAGTNSRWEVIANYMNIHSSSGVKRTAKDVIGKA, the abundance fitness is -0.29 ± 0.094.

The values above are taken from the Human Domainome abundance scans (Beltran et al. 2025).
